This series concerns the molecule itself. Kind of series: self-association (trimerization); EGS crosslinking of K562 cell extracts, SDS-PAGE, western blot. The text has this:
FIG. 9: The HSF1 K80Q mutant is not defective in trimerization ability. A prerequisite of stable HSF binding to DNA is the formation of trimeric HSF complexes. Therefore, it is conceivable that mutations of K80 disrupted proper HSF1 folding or the stress-induced formation of HSF trimers. To explore this possibility, e a cross-linking assay was used to determine the formation of higher-order complexes upon heat shock. K562 cells were transfected with WT Myc-HSF1, Myc-HSF1 K80Q or Myc-HSF1 M391K, L395P, a previously characterized HSF1 mutant that is constitutively trimeric (14). Cells were treated with or without heat shock (HS, 42° C., 20 minutes) followed by treatment with the EGS crosslinking agent. Protein extracts were separated by SDS-PAGE and western blot analysis was performed with the indicated antibodies. The arrow indicates monomeric HSF1 and the arrowhead marks trimeric HSF1.
A general note: A western blot detects proteins with antibodies after separation by electrophoresis.

B1: Myc-HSF1 K80Q (other)
chain: MDLPVGPGAAGPSNVPAFLTKLWTLVSDPDTDALICWSPSGNSFHVFDQGQFAKEVLPKYFKHNNMASFVRQLNMYGFRQVVHIEQGGLVKPERDDTEFQHPCFLRGQEQLLENIKRKVTSVSTLKSEDIKIRQDSVTKLLTDVQLMKGKQECMDSKLLAMKHENEALWREVASLRQKHAQQQKVVNKLIQFLISLVQSNRILGVKRKIPLMLNDSGSAHSMPKYSRQFSLEHVHGSGPYSAPSPAYSSSSLYAPDAVASSGPIISDITELAPASPMASPGGSIDERPLSSSPLVRVKEEPPSPPQSPRVEEASPGRPSSVDTLLSPTALIDSILRESEPAPASVTALTDARGHTDTEGRPPSPPPTSTPEKCLSVACLDKNELSDHLDAMDSNLDNLQTMLSSHGFSVDTSALLDLFSPSVTVPDMSLPDLDSSLASIQELLSPQEPPRPPEAENSSPDSGKQLVHYTAQPLFLLDPGSVDTGSNDLPVLFELGEGSYFSEGDGFAEDPTISLLTGSEPPKAKDPTVS
notes: also called K80Q mutant; K80Q HSF1; not shown: Myc tag
Consider B1, for which the binding result was “binds”.
